From patent EP4792821A2 (Beijing Youcare Kechuang Pharmaceutical Technology Co., Ltd., dated 2026)
*1 amine or outer side, *2 acyl side, *3 side chain or, on linkers, in order; H or OH if unused. Side-chain parts run from the residue outwards. The star is where a group is joined. Succinyl(4-O-cholesteryl) = CC(C)CCC[C@@H](C)[C@H]1CC[C@H]2[C@@H]3CC=C4C[C@@H](OC(=O)CCC(=O)*)CC[C@]4(C)[C@H]3CC[C@]12C; Suc = O=C(CCC(=O)[*:2])[*:1]

Key:
Assay in all cases: cell-based or functional assay
[1] = target: F protein of RSV A long virus strain (Respiratory Syncytial Virus (RSV) A …, UniProt P12568 26-574)
[2] = target: F protein of hMPV virus strain A2 (human metapneumovirus (hMPV) A2)
[3] = target: F protein of hMPV virus strain B1 (human metapneumovirus (hMPV) B1)
[4] = target: F protein of hPIV Type 3 (hPIV3 C243) (human Parainfluenza Virus type 3 (hPIV3 …))

Sequence of F protein of RSV A long virus strain (P12568 26-574): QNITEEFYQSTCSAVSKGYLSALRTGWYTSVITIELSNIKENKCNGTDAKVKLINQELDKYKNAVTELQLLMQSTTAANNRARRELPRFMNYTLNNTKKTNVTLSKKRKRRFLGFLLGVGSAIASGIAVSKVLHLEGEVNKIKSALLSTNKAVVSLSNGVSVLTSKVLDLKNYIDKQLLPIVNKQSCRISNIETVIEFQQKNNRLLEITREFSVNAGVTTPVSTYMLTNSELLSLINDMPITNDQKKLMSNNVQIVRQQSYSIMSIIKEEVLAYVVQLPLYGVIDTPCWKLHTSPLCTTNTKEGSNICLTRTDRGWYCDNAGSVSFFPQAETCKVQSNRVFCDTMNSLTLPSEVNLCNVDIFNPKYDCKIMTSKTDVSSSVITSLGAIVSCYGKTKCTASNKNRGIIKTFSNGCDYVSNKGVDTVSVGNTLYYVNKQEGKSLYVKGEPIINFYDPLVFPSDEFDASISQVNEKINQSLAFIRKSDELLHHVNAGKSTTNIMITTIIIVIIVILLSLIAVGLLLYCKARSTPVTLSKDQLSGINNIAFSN

Binder	IC50/nM, plaque reduction, RSV A long on HEp-2 cells (Table 2, Cell fusion inhibition activity) [1] [nM]	EC50 (nM), plaque reduction, hMPV A2 on Vero cells [2] [nM]	EC50 (nM), plaque reduction, hMPV B1 on Vero cells [3] [nM]	EC50 (nM), plaque reduction, hPIV3 C243 on LLC-MK2 cells [4] [nM]
Ac-DEFDKKIEEVNKKIEESLKKIEESDKKLEAAAKK(Succinyl(4-O-cholesteryl))-NH2 [Compound 17]	17.6	8.78	3.61	52.6
Ac-DEFDASISQVNEKINQSLEEIRKSDELLHNEAAAKK([Suc-Succinyl(4-O-cholesteryl)])-NH2 [Compound 28]	12.4	58.6	13.8	54.4
Ac-YDELVFDASQVNEKINQSLEKIRKSDELLHNVEAAAKK([Suc-Succinyl(4-O-cholesteryl)])-NH2 [Compound 30]	14.9	94.8	51.3	48.2
Ac-FDEEISQVNEKINQSLAFIRKSDELLHNVNAGKSTTEAAAKK([Suc-Succinyl(4-O-cholesteryl)])-NH2 [Compound 26]	12.8	103	2.85	1.35
Ac-SDEFDKKIEEVNKKIEESLKKIEESDKKLGSGSGK([Suc-Succinyl(4-O-cholesteryl)])-NH2 [Compound 20]	19.8	7.47	4.27	59.5
Ac-LVKKIDEFDASISQVNEKINQSLEEIRKSDELLHNVGSGSGK([Suc-Succinyl(4-O-cholesteryl)])-NH2 [Compound 29]	19.3	41.6	11.1	26.3
Ac-FDASIEEVNRRIEESLRRIEESDRRLEEVNAEAAAKK([Suc-Succinyl(4-O-cholesteryl)])-NH2 [Compound 42]	11.8	26.1	10.1	18.9
Ac-WDEFDKKIEEVNKKIEESLKKIEESDKKLEEVNEAAAKK([Suc-Succinyl(4-O-cholesteryl)])-NH2 [Compound 41]	14.8	11.7	9.46	71.1
Ac-WDEFDASIEEVNRRIEESLRRIEESDRRLEEVEAAAKK([Suc-Succinyl(4-O-cholesteryl)])-NH2 [Compound 43]	18.3	16.8	8.01	16.1
Ac-YDELVFDASQVNEKINQSLEKIRKSDELLHNVGSGSGK([Suc-Succinyl(4-O-cholesteryl)])-NH2 [Compound 25]	28.7	86.4	38.1	29.4
Ac-DEFDKKIEEVNKKIEESLKKIEESDKKLEEVEAAAKK([Suc-Succinyl(4-O-cholesteryl)])-NH2 [Compound 21]	14.6	11.2	4.92	21.3
Ac-WDEFDASISQVNEKINQSLEEIRKSDELLHNVNAGLGSGSGK([Suc-Succinyl(4-O-cholesteryl)])-NH2 [Compound 27]	25.7	78.3	10.5	27.2
Ac-WDEFDASISQVNEKINQSLEEIRKSDELLHNVNALEAAAKK([Suc-Succinyl(4-O-cholesteryl)])-NH2 [Compound 38]	14.6	128	16.6	26.4
Ac-DEFDKKKIEEVNKKIEESLKKIEESDKKLEEVEAAAKK([Suc-Succinyl(4-O-cholesteryl)])-NH2 [Compound 22]	11.3	88.4	18	65.4
Ac-WDEFDKKIEEVNKKIEESLKKIEESDKKLEEVNAEAAAKK([Suc-Succinyl(4-O-cholesteryl)])-NH2 [Compound 40]	11.7	13.8	7.47	22.2
